Measurements published in patent US6635429B1, “Heterodimeric nuclear receptors proteins, genes encoding same, and usage thereof” (Institut National de la Sante et de la Recherche Medicale, priority 1992, dated 2003).

Biological target: T1, hRAR-γ binding to β-RARE (Homo sapiens, UniProt P13631)
T1 construct: fused to the amino terminal amino acid of full length hRAR-γ; 14 amino acids from the parental vector pEt3a (bacterially expressed preparation only) (N); made in house; host or cells: E. coli BL21 (DE3) plysS; also rVV-infected HeLa cells, rBV-infected Sf9 cells, yeast (ubiquitin fusion) and rabbit reticulocyte lysate
T1 sequence (P13631 1-454): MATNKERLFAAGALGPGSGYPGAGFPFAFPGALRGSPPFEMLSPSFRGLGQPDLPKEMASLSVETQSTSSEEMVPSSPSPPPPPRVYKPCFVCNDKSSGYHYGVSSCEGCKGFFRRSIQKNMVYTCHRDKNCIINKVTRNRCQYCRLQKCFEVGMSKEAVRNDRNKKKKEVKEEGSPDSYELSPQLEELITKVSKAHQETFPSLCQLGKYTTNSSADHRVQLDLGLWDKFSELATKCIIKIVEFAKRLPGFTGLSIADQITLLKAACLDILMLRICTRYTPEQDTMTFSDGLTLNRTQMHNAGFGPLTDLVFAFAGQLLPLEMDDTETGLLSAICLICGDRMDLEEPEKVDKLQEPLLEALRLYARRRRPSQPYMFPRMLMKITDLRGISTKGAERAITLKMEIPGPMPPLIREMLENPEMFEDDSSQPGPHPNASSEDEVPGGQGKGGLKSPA
T1 sequence (P28702 1-533 partner): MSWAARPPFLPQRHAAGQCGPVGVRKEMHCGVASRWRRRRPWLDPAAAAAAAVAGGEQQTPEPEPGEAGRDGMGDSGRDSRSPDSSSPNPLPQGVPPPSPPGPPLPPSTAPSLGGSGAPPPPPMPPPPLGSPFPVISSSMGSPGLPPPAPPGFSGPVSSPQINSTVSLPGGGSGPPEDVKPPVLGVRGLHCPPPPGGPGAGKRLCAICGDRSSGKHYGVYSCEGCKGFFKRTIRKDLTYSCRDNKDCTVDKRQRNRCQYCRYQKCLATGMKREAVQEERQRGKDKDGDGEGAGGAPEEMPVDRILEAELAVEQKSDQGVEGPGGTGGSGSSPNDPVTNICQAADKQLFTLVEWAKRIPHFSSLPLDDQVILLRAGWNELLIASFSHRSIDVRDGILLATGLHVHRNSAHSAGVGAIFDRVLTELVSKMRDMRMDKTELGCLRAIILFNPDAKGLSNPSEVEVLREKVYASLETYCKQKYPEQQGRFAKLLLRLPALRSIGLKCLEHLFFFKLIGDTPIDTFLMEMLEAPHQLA
Assay: Gel retardation assay of RAR binding to β-RARE (RBF complementation)
Settings: RBF activity, complementation gel retardation with bacterially-expressed hRAR-γ
Procedure: For gel retardation experiments comparing RAR and RXR subtypes and deletion mutants, all proteins were produced by in vitro translation in the presence of [^35S]methionine.
Purification of rVV- and rBV-expressed hRAR-γ is being described elsewhere (Chen et al., manuscript in preparation). […] All steps were carried out at 4° C. and RBF activity was monitored through all purification steps by a complementation gel retardation assay using bacterially-expressed hRAR-γ as described above. […] The column was washed with equilibration buffer until the A280 of the eluent returned to baseline. […] The column was washed with equilibration buffer until the A280 of the eluent returned to baseline and then with 4 column volumes of buffer A containing 0.45 M ammonium sulfate and 50 mM KCl. The column was then eluted with an 18 ml linear gradient from 0.45 to 0 M ammonium sulfate in buffer A containing 50 mM KCl.

B1: HAP-TSK: hydroxylapatite column-purified HeLa cell RBF, apparently homogeneous ~64 kDa polypeptide, predominantly hRXR-β (protein, UniProt P28702 1-533, looked up)
Retinoic acid receptor …: MSWAARPPFLPQRHAAGQCGPVGVRKEMHCGVASRWRRRRPWLDPAAAAAAAVAGGEQQTPEPEPGEAGRDGMGDSGRDSRSPDSSSPNPLPQGVPPPSPPGPPLPPSTAPSLGGSGAPPPPPMPPPPLGSPFPVISSSMGSPGLPPPAPPGFSGPVSSPQINSTVSLPGGGSGPPEDVKPPVLGVRGLHCPPPPGGPGAGKRLCAICGDRSSGKHYGVYSCEGCKGFFKRTIRKDLTYSCRDNKDCTVDKRQRNRCQYCRYQKCLATGMKREAVQEERQRGKDKDGDGEGAGGAPEEMPVDRILEAELAVEQKSDQGVEGPGGTGGSGSSPNDPVTNICQAADKQLFTLVEWAKRIPHFSSLPLDDQVILLRAGWNELLIASFSHRSIDVRDGILLATGLHVHRNSAHSAGVGAIFDRVLTELVSKMRDMRMDKTELGCLRAIILFNPDAKGLSNPSEVEVLREKVYASLETYCKQKYPEQQGRFAKLLLRLPALRSIGLKCLEHLFFFKLIGDTPIDTFLMEMLEAPHQLA
Specific Activity: 7,750,000 cpm/μg
